In US6428997B1, “Aminopeptidase derived from Bacillus licheniformis and process for preparation of natural type proteins” (LG Chemical Ltd., priority 1997, dated 2002):

What was measured:
[1] = system: leucyl oligopeptide of SEQ. ID. NO: 2; test: Kinetic parameters of aminopeptidase, leucyl oligopeptide substrate; assay type: biochemical; conditions: 37° C.
Source text: (§1) In order to compare substrate specificity of aminopeptidase of this invention, 2 kinds of substrate were used. In detail, one was synthetic substrates of p-nitroanilide derivative and purchased from Sigma, USA and the other was oligopeptide such as methionyl oligopeptide of SEQ. ID. NO: 1 which have amino acid sequence similar to N-terminus of methionyl HGH and leucyl oligopeptide of SEQ. ID. NO: 2. The oligopeptides of this invention were synthesized.
(§2) In addition oligopeptide was also used as substrate to perform enzyme reaction by using substrate of known concentration and aminopeptidase in buffer containing 0.1M Tris-Cl, 0.1M NaCl to make 500 μl reaction volume. The enzyme reaction was performed at 37° C. and after 5 and 10 min 250 μl of reaction mixture was adopted and added 70% acetic acid to stop the reaction. The reaction mixture was analyzed by performing HPLC chromatography.
(§3) In reaction condition mentioned above, initial velocity of enzyme reaction was measured with varying the substrate concentration. Lineweaver-Burk plot was used to determine Km value and Maximum reaction velocity of aminopeptidase from Bacillus licheniformis. In addition kcat and kcat/Km was determined by using Km value and maximum reaction velocity described above.

[2] = system: methionyl oligopeptide of SEQ. ID. NO: 1; test: Kinetic parameters of aminopeptidase, methionyl oligopeptide substrate; assay type: biochemical; conditions: 37° C.
Source text: as §1, §2, §3

B1: Aeromonas proteolytica aminopeptidase: Aeromonas proteolytica (Vibrio prozeolytica) aminopeptidase (Korean Patent Publication NO. 94-14804), comparison enzyme (protein)
chain: MPPITQQATVTAWLPQVDASQITGTISSLESFTNRFYTTTSGAQASDWIASEWQALSASLPNASVKQVSHSGYNQKSVVMTITGSEAPDEWIVIGGHLDSTIGSHTNEQSVAPGADDDASGIAAVTEVIRVLSENNFQPKRSIAFMAYAAEEVGLRGSQDLANQYKSEGKNVVSALQLDMTNYKGSAQDVVFITDYTDSNFTQYLTQLMDEYLPSLTYGFDTCGYACSDHASWHNAGYPAAMPFESKFNDYNPRIHTTQDTLANSDPTGSHAKKFTQLGLAYAIEMGSATGDTPTPGNQ
B1 showed a Km [1] of 336 µM, a kcat [1] of 70.29 s⁻¹ and a Km [2] of 956 µM. The kcat [2] was 3.23 s⁻¹.
